For orientation: Kd means the free concentration of one partner at which half of the binding sites on the other are occupied at equilibrium, for simple one-to-one binding. The low end stands for a tighter complex, the high end for a looser complex.

Where two headings read alike, the source gives them in different places.

In patent US8080523 one finds Kd and fold selectivity for Kv1.3 over this channel data, which are given here for 2 molecules.

Assay [1] deals with T1, Kv1.3 (cloned) (Mus musculus (Mouse)), P16390.
T1 chain: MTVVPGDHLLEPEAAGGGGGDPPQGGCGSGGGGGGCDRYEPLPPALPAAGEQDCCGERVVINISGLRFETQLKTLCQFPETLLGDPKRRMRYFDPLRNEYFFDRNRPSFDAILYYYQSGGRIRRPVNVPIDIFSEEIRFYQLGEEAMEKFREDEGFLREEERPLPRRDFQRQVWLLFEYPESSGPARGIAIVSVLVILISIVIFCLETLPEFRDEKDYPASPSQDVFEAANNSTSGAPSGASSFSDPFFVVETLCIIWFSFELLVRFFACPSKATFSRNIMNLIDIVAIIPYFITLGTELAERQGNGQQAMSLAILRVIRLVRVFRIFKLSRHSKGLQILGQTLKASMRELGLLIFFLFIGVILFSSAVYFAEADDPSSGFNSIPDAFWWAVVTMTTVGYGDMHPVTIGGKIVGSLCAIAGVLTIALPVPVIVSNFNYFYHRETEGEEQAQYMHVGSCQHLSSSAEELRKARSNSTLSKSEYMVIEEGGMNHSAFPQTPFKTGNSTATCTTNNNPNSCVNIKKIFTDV
In words: patch-clamp, block of channel current. For orientation: The patch-clamp technique gives a direct electrical read-out from membranes.

Assay [2] concerns the target T2, Kv1.1 (Mus musculus (Mouse)), P16388.
T2 chain: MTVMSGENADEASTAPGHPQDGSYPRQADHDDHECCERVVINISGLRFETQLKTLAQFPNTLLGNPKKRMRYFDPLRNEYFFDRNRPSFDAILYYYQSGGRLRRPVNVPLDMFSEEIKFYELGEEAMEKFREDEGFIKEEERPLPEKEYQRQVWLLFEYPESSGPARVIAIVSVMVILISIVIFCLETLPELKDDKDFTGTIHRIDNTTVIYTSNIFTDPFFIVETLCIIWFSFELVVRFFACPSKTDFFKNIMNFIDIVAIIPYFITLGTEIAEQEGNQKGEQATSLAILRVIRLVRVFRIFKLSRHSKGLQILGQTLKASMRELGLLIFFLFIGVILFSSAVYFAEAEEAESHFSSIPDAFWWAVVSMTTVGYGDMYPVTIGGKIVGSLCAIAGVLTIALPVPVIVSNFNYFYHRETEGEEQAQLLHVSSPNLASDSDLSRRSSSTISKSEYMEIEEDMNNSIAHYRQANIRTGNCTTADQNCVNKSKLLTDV
In words: patch-clamp, block of channel current.

Assay [3] has the same target. In words: patch-clamp, ratio of Kd values; reference margatoxin on Kv1.3.
Assay [4] deals with T1, Kv1.3 (cloned) (Mus musculus (Mouse)), ….

As to TIINVKCTSPKQCLPPCKAQFGQSAGAKCMNGKCKCYPH (modifications not checked) [Margatoxin, P40755 1-39], the Kd was 0.11 nM in assay [1] and 10 nM in assay [2]. For the same molecule, in assay [3], the fold selectivity for Kv1.3 over this channel is 9 fold.
In turn, RSCIDTIPKSRCTAFQCKHSMKYRLSFCRKTCGTC (modifications not checked) [ShK toxin] showed a Kd in assay [4] of 0.01 nM.
